US11433099B2, “Immunotherapy with B*08 restricted peptides and combination of peptides against cancers and related methods” (Immatics Biotechnologies GmbH, priority 2018, dated 2022)

Target: HLA-B*08:01 (Homo sapiens, UniProt P01889)
Experiment: MHC binding assay (UV-ligand exchange, beta2m ELISA)
Conditions: MHC class I binding score; binding to HLA-B*08:01 ranged by peptide exchange yield (UV-ligand exchange, β2m ELISA)
In short: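 Peptide–HLA complexes generated by UV-ligand exchange of a UV-cleavable peptide for the test peptide; exchange yield read by β2m ELISA on streptavidin capture (samples diluted 100-fold, 1 h 37 °C), HRP anti-β2m, TMB, A450. Quantified against refolded HLA-A*02:01/MLA-001 monomer standards (15-500 ng/ml).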

Row | Substance | Peptide exchange
1 | 178 (IPRLAVISI; listed as Homo sapiens) [compound 178] | ++ (20% = ++)
2 | 179 (LPLTEHEL; listed as Homo sapiens) [compound 179] | +++ (50% = +++)
3 | 180 (LAVPIFVAL; listed as Homo sapiens) [compound 180] | ++ (20% = ++)
4 | 181 (SIRSSYSRF; listed as Homo sapiens) [compound 181] | ++ (20% = ++)
5 | 182 (ILHLSAIAL; listed as Homo sapiens) [compound 182] | ++++ (75% = ++++)
6 | 183 (YVSKPGAQL; listed as Homo sapiens) [compound 183] | ++ (20% = ++)
7 | 184 (DRLKPLKM; listed as Homo sapiens) [compound 184] | ++ (20% = ++)
8 | 185 (MELKTVKPI; listed as Homo sapiens) [compound 185] | ++ (20% = ++)
9 | 186 (DLISPRQPRL; listed as Homo sapiens) [compound 186] | ++ (20% = ++)
10 | 187 (VPYNSVLF; listed as Homo sapiens) [compound 187] | ++ (20% = ++)
11 | 188 (EIMEKTTL; listed as Homo sapiens) [compound 188] | ++ (20% = ++)
12 | 189 (APDNVLLTL; listed as Homo sapiens) [compound 189] | ++ (20% = ++)
13 | 190 (ELLNRIYF; listed as Homo sapiens) [compound 190] | ++ (20% = ++)
14 | 191 (RPLKPGEVL; listed as Homo sapiens) [compound 191] | ++ (20% = ++)
15 | 192 (EEKHFTTL; listed as Homo sapiens) [compound 192] | ++ (20% = ++)
16 | 193 (LGGLRLTAL; listed as Homo sapiens) [compound 193] | ++ (20% = ++)
17 | 194 (RAIEHVLQV; listed as Homo sapiens) [compound 194] | +++ (50% = +++)
18 | 195 (EGNQKSVI; listed as Homo sapiens) [compound 195] | ++ (20% = ++)
19 | 196 (LDLRQKVL; listed as Homo sapiens) [compound 196] | ++ (20% = ++)
20 | 197 (YKAYPSQL; listed as Homo sapiens) [compound 197] | ++ (20% = ++)
21 | 198 (FPLTSIIAI; listed as Homo sapiens) [compound 198] | +++ (50% = +++)
22 | 199 (IPFIHLPEI; listed as Homo sapiens) [compound 199] | ++ (20% = ++)
23 | 200 (VAAARAVPV; listed as Homo sapiens) [compound 200] | ++ (20% = ++)
24 | 201 (TASAMQHVL; listed as Homo sapiens) [compound 201] | +++ (50% = +++)
25 | 202 (RIPEKASFL; listed as Homo sapiens) [compound 202] | ++ (20% = ++)

Row | Substance | Peptide exchange
26 | 203 (DVYTQVSAF; listed as Homo sapiens) [compound 203] | ++ (20% = ++)
27 | 204 (MSPLLRSI; listed as Homo sapiens) [compound 204] | ++ (20% = ++)
28 | 205 (YMQYGFLSM; listed as Homo sapiens) [compound 205] | ++ (20% = ++)
29 | 206 (MEFPNKFNTL; listed as Homo sapiens) [compound 206] | ++ (20% = ++)
30 | 207 (LRKRKSPE; listed as Homo sapiens) [compound 207] | ++ (20% = ++)
31 | 208 (LPPPQPLSL; listed as Homo sapiens) [compound 208] | ++ (20% = ++)
32 | 209 (SRFGKFVQL; listed as Homo sapiens) [compound 209] | ++ (20% = ++)
33 | 210 (QPNTHQLL; listed as Homo sapiens) [compound 210] | ++ (20% = ++)
34 | 211 (DVISKGVSL; listed as Homo sapiens) [compound 211] | ++ (20% = ++)
35 | 212 (EEYKFPSL; listed as Homo sapiens) [compound 212] | ++ (20% = ++)
36 | 213 (FPSLFINQF; listed as Homo sapiens) [compound 213] | ++ (20% = ++)
37 | 214 (DAPRHRLL; listed as Homo sapiens) [compound 214] | ++ (20% = ++)
38 | 215 (NPLIEIISI; listed as Homo sapiens) [compound 215] | ++ (20% = ++)
39 | 216 (EARPPSPAV; listed as Homo sapiens) [compound 216] | ++ (20% = ++)
40 | 217 (ETIKGHSVRL; listed as Homo sapiens) [compound 217] | ++ (20% = ++)
41 | 218 (DNHPRLVTL; listed as Homo sapiens) [compound 218] | +++ (50% = +++)
42 | 219 (VRNPKILIL; listed as Homo sapiens) [compound 219] | ++ (20% = ++)
43 | 220 (LAVRHLSL; listed as Homo sapiens) [compound 220] | ++ (20% = ++)
44 | 221 (SLKEELLSL; listed as Homo sapiens) [compound 221] | +++ (50% = +++)
45 | 222 (AQKAELIAL; listed as Homo sapiens) [compound 222] | ++ (20% = ++)
46 | 223 (DVSARKLRV; listed as Homo sapiens) [compound 223] | ++ (20% = ++)
47 | 224 (LPYPPQKVV; listed as Homo sapiens) [compound 224] | ++ (20% = ++)
48 | 225 (MPKRAHWGA; listed as Homo sapiens) [compound 225] | +++ (50% = +++)
49 | 226 (DIYEVAVSL; listed as Homo sapiens) [compound 226] | +++ (50% = +++)
50 | 227 (SRFPGMSVL; listed as Homo sapiens) [compound 227] | ++ (20% = ++)

Row | Substance | Peptide exchange
51 | 228 (TLRAYVLAL; listed as Homo sapiens) [compound 228] | +++ (50% = +++)
52 | 229 (DTHTNTYYL; listed as Homo sapiens) [compound 229] | ++ (20% = ++)
53 | 230 (DVYFHHVL; listed as Homo sapiens) [compound 230] | ++ (20% = ++)
54 | 231 (GEKLLRPSL; listed as Homo sapiens) [compound 231] | ++ (20% = ++)
55 | 232 (KLYIHRVTL; listed as Homo sapiens) [compound 232] | ++ (20% = ++)
56 | 233 (DVKLVFVM; listed as Homo sapiens) [compound 233] | ++ (20% = ++)
57 | 234 (VFRVGISF; listed as Homo sapiens) [compound 234] | ++ (20% = ++)
58 | 235 (SPNSLVTIL; listed as Homo sapiens) [compound 235] | +++ (50% = +++)
59 | 236 (STLKKSLEI; listed as Homo sapiens) [compound 236] | ++ (20% = ++)
60 | 237 (LPLDSRYVTL; listed as Homo sapiens) [compound 237] | +++ (50% = +++)
61 | 238 (IPLAIARL; listed as Homo sapiens) [compound 238] | +++ (50% = +++)
62 | 239 (SEPVMRVTL; listed as Homo sapiens) [compound 239] | ++ (20% = ++)
63 | 240 (KVIDRKVEL; listed as Homo sapiens) [compound 240] | ++ (20% = ++)
64 | 241 (NAYEAPSI; listed as Homo sapiens) [compound 241] | ++ (20% = ++)
65 | 242 (KPQSLQLVL; listed as Homo sapiens) [compound 242] | ++ (20% = ++)
66 | 243 (EGVPPGTVL; listed as Homo sapiens) [compound 243] | +++ (50% = +++)
67 | 244 (HALPPYITVL; listed as Homo sapiens) [compound 244] | ++ (20% = ++)
68 | 245 (GPRGPSSGHPL; listed as Homo sapiens) [compound 245] | ++ (20% = ++)
69 | 246 (RLLQKSKEL; listed as Homo sapiens) [compound 246] | ++ (20% = ++)
70 | 247 (TPEPSVHAL; listed as Homo sapiens) [compound 247] | ++ (20% = ++)
71 | 248 (SEVNKHETAL; listed as Homo sapiens) [compound 248] | ++ (20% = ++)
72 | 249 (QQIDRVVEV; listed as Homo sapiens) [compound 249] | ++ (20% = ++)
73 | 250 (AARAPPQAL; listed as Homo sapiens) [compound 250] | ++ (20% = ++)
74 | 251 (DAAAFFKSV; listed as Homo sapiens) [compound 251] | ++ (20% = ++)
